Here are results for six sequences from patent publication US20190359992.

Test in all cases: cell_activity
For data set [1], the system named is GmUbi3_T01.1 Right TALEN (synthetic construct). The following applies: pair with P1; soybean protoplasts, raw 0.72%; full site SEQ 25.
The subject of data set [2] is GmUbi3_T02.1 Right TALEN (synthetic construct). The following applies: pair with P3; soybean protoplasts, raw 1.70%; full site SEQ 26.
In data set [3] the test system is GmUbi3_T02.1 Left TALEN (synthetic construct). The following applies: pair with P4; soybean protoplasts, raw 1.70%; full site SEQ 26.
Data set [4] has as its system GmUbi3_T03.1 Right TALEN (synthetic construct). The following applies: pair with P5; soybean protoplasts, raw 4.98%; full site SEQ 27.
Data set [5] deals with GmUbi3_T03.1 Left TALEN (synthetic construct). The note with it: pair with P6; soybean protoplasts, raw 4.98%; full site SEQ 27.
The subject of data set [6] is GmUbi3_T01.1 Left TALEN (synthetic construct). The note with it: pair with P2; soybean protoplasts, raw 0.72%; full site SEQ 25.

On to “CCAACATTACACAACT (double strand) [GmUbi3_T1 right half-site]”, for which, in data set [1], the activity (% normalized mutation frequency) worked out at 0.91.

Take “CCTTCACACAACTCAT (double strand) [GmUbi3_T2 right half-site]”: the activity (% normalized mutation frequency) in data set [2] turned out to be 2.76. Take “CTTCCATGCTTGTCAT (double strand) [GmUbi3_T2 left half-site]”: in data set [3], the activity (% normalized mutation frequency) is 2.76. As to “GCCTTGAGCTAGTTGT (double strand) [GmUbi3_T3 right half-site]”, in data set [4], the activity (% normalized mutation frequency) is 8.12.

Take “TCATCAACTGTGGAGT (double strand) [GmUbi3_T3 left half-site]”: in data set [5], the activity (% normalized mutation frequency) was determined as 8.12. As for “TGTCCTCCGTCTCCGT (double strand) [GmUbi3_T1 left half-site]”, the activity (% normalized mutation frequency) in data set [6] stood at 0.91.
